{"source": "paper PMC9352664", "about": "(Nature Communications, 2022)", "molecules": {"B1": {"name": "VHHQM5 (VHH)", "VHH": "QVQLVESGGGLVQPGGSLRLSCATSRFTLNYYDIGWFRQAPGKEREGVSCITSSGGNTNYADSVKGRFTISRDNAKNTVYLQMNSLKPEDTAIYYCAAAKYGSAWPCSSMPLRDFGSWGQGTQVTVSS"}, "B2": {"name": "VHHQM2 (VHH)", "VHH": "QVQLVESGGGLVQPGESLRLSCAASGSTFSSYGMSWVRQAPRKGPEWVSSISASGTLTRYADFVKGRFTVSRDNAKNTLFLQMNSLKPEDTALYYCARGGAPSVVYNRHDWGQGTQVTVSS"}, "B3": {"name": "VHHQM4 (VHH)", "VHH": "QVQLVETGGGLVQPGGSLRLSCAASAFTYDNYGIGWFRQAPGKEREGVSCISSSGGTVNYADSVKGRFTISRDNAKNTVYLQMNSLKPEDTAVYYCAALKYGSSCRFLRAANFGSWGQGTRVTVSS"}, "B4": {"name": "VHHQM9 (VHH)", "VHH": "QLQLVESGGRSVQAGGSLRLSCAASGRAFTMAWFRQAPGKEREFVAARTWPVEYGYYADSVKDRFTISRDNAKNILYLQMTSLHPEDTAMYYCAASTANRDSVNVRFSDQYAYWGPGTQVTVSV"}, "B5": {"name": "VHHQM7 (VHH)", "VHH": "QVQLVESGGGLVQPGGSLRLSCAASGFTLSYHAIGWFRQAPGKEREGVSFISSSGSSTNYADSVKGRFTISKDNAKNTVYLQMDSLKPEDTAVYYCARSAAYGSSWLNPSRYDYWGQGTQVTVSS"}, "B6": {"name": "VHHQM6 (VHH)", "VHH": "QLQLVESGGGLVQAGGSLRLSCTASRVTLNYHDIGWFRQAPGKEREGVSYISSSGGSTKYADFVKGRFTISRDNAKNTVYLQMNSLKPEDTAVYYCARSAAYGSSWLNPSRYDYWGQGTQVTVSS"}, "B7": {"name": "VHHQM3 (VHH)", "VHH": "B6 VHH with S7T, A14P, N30D, K59N, F63S, A100S"}, "B8": {"name": "VHHQM3 S85C labelled with AF-555 (VHH)", "VHH": "B6 VHH with S7T, A14P, N30D, K59N, F63S, S85C, A100S"}}, "key": {"HiSiaP (P-domain) [1]": {"target": "T1, HiSiaP (P-domain) (Haemophilus influenzae, UniProt P44542, E195R)", "T1 construct": "gene siaP", "settings": "read-out: affinity; 50 mM Tris, 50 mM NaCl, pH 8; one approximate value printed for all three mutants"}, "HiSiaP (P-domain) [2]": {"target": "T2, HiSiaP (P-domain) (Haemophilus influenzae, UniProt P44542, S83R)", "T2 construct": "gene siaP", "settings": "read-out: affinity; 50 mM Tris, 50 mM NaCl, pH 8; one approximate value printed for all three mutants"}, "HiSiaP (P-domain) [3]": {"target": "T3, HiSiaP (P-domain) (Haemophilus influenzae, UniProt P44542, D81R)", "T3 construct": "gene siaP", "settings": "read-out: affinity; 50 mM Tris, 50 mM NaCl, pH 8; one approximate value printed for all three mutants"}, "[4]": {"target": "HiSiaQM (wild type) (Haemophilus influenzae) (UniProt P44543)", "test": "single-molecule TIRF microscopy on solid-supported bilayers; HiSiaQM in DOPC solid-supported bilayers, AF-647-labelled P-domain without sialic acid; 20 mM HEPES, 150 mM NaCl, pH 7.4"}, "[5]": {"target": "HiSiaQM K273C-biotin (Haemophilus influenzae) (UniProt P44543)", "test": "SPR"}, "HiSiaQM K273C-biotin": {"target": "T4, HiSiaQM K273C-biotin (Haemophilus influenzae, UniProt P44543, Maleimide-PEG2-biotin on the introduced cysteine K273C)", "T4 chain": "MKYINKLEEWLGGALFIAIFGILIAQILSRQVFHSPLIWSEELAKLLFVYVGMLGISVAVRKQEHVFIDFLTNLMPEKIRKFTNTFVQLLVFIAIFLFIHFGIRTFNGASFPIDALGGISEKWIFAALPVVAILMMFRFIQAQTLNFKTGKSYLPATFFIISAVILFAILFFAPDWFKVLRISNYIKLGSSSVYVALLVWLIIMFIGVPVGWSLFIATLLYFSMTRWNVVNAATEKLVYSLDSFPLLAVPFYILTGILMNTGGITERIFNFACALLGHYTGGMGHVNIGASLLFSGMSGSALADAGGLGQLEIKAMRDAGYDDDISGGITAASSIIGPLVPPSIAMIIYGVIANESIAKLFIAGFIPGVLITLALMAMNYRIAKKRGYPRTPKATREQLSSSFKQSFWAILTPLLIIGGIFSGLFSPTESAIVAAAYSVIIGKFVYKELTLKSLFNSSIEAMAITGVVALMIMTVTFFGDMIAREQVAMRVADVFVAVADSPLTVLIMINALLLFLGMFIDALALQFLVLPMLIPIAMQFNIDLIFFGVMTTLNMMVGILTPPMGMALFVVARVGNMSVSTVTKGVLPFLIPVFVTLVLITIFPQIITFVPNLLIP"}, "HiSiaQM (wild type) [6]": {"target": "T5, HiSiaQM (wild type) (Haemophilus influenzae, UniProt P44543)", "T5 construct": "also called QM-domains; native QM-domains", "test": "single-molecule TIRF microscopy on solid-supported bilayers; HiSiaQM in DOPC solid-supported bilayers pre-incubated with unlabelled VHHQM3 for at least 30 min, then AF-647-labelled P-domain added", "settings": "both partners purified"}, "HiSiaQM (wild type) [7]": {"target": "T5, HiSiaQM (wild type)", "test": "single-molecule TIRF microscopy on solid-supported bilayers; HiSiaQM in DOPC solid-supported bilayers stained with VHHQM3-AF-555, incubated at least 30 min, bilayer washed 5 times", "settings": "both partners purified"}}, "note": "Residue numbers refer to the chain shown, from its start. Names and notes keep the numbering of the source."}
{"molecule": "CC(=O)N[C@H]1[C@H]([C@H](O)[C@H](O)CO)OC(O)(C(=O)O)C[C@@H]1O", "note": "(stereo partly shown) [sialic acid]", "values": [{"measurement": "Kd", "setting": "HiSiaP (P-domain) [1]", "result": "~50", "unit": "nM"}, {"measurement": "Kd", "setting": "HiSiaP (P-domain) [2]", "result": "~50", "unit": "nM"}, {"measurement": "Kd", "setting": "HiSiaP (P-domain) [3]", "result": "~50", "unit": "nM"}]}
{"molecule": "HiSiaP K254C labelled with AF-647 (from UniProt P44542) (natural protein; other documents disagree on this pair)", "values": [{"measurement": "reduction of P–QM binding events in the absence of sialic acid", "setting": "[4]", "result": 50, "unit": "%"}]}
{"molecule": "HiSiaP (wild type) (from UniProt P44542 24-329) (natural protein)", "values": [{"measurement": "Kd", "setting": "[5]", "result": 1000, "unit": "nM"}]}
{"molecule": "B1", "values": [{"measurement": "Kd", "setting": "HiSiaQM K273C-biotin", "result": 1.06, "unit": "nM"}]}
{"molecule": "B2", "values": [{"measurement": "Kd", "setting": "HiSiaQM K273C-biotin", "result": 9.83, "unit": "nM"}]}
{"molecule": "B3", "values": [{"measurement": "Kd", "setting": "HiSiaQM K273C-biotin", "result": 10.4, "unit": "nM"}]}
{"molecule": "B4", "values": [{"measurement": "Kd", "setting": "HiSiaQM K273C-biotin", "result": 0.36, "unit": "nM"}]}
{"molecule": "B5", "values": [{"measurement": "Kd", "setting": "HiSiaQM K273C-biotin", "result": 4.88, "unit": "nM"}]}
{"molecule": "B6", "values": [{"measurement": "Kd", "setting": "HiSiaQM K273C-biotin", "result": 0.64, "unit": "nM"}]}
{"molecule": "B7", "values": [{"measurement": "binding result", "setting": "HiSiaQM (wild type) [6]", "result": "binds"}]}
{"molecule": "B8", "values": [{"measurement": "binding result", "setting": "HiSiaQM (wild type) [7]", "result": "binds"}]}
